The values that follow come from patent US20070071746A1 (AstraZeneca / MedImmune, published 2007).

The chains are these.
B1: M5 (antibody, V domains shown)
VH: EVQLLESGGGLVQPGGSLRLSCAASGFTFSKYLMQWVRQAPGKGLEWVSSIVPSGGETVYADSVKGRFTISRDNSKNTLYLQMNSLRAEDTAVYYCARSGTYGASRYWGQGTLVTVSS
VL: DIQMTQSPLSLSVSVGQSASISCRSSHSLLYSDGNTYINWFHQRPGQSPRRLIHMVSKRDSGVPDRFSGSGSGTDFTLKISRAEAEDVGVYYCMQATYFPLTFGGGTRVEIK
notes: Fully human anti-AMCase antibody from a phage display library, converted to full length IgG
B2: human galectin-4 (other, UniProt P56470 1-323, looked up)
chain: MAYVPAPGYQPTYNPTLPYYQPIPGGLNVGMSVYIQGVASEHMKRFFVNFVVGQDPGSDVAFHFNPRFDGWDKVVFNTLQGGKWGSEERKRSMPFKKGAAFELVFIVLAEHYKVVVNGNPFYEYGHRLPLQMVTHLQVDGDLQLQSINFIGGQPLRPQGPPMMPPYPGPGHCHQQLNSLPTMEGPPTFNPPVPYFGRLQGGLTARRTIIIKGYVPPTGKSFAINFKVGSSGDIALHINPRMGNGTVVRNSLLNGSWGSEEKKITHNPFGPGQFFDLSIRCGLDRFKVYANGQHLFDFAHRLSAFQRVDTLEIQGDVTLSYVQI
notes: also called gal-4
B3: M1 (antibody, V domains shown)
VH: EVQLLESGGGLVQPGGSLRLSCAASGFTFSTYGMDWVRQAPGKGLEWVSYISPSGGYTMYADSVKGRFTISRDNSKNTLYLQMNSLRAEDTAVYYCARHSPRSAGANAFDIWGQGTMVTVSS
VL: DIQMTQSPATLSVSPGERATLSCRASQSVSSNLAWYQQKPGQAPRLLIYGASTRATGIPARFSGSGSGTEFTLTISSLQSEDFAVYYCQQYGSSLWTFGQGTKVEIK
notes: Fully human anti-AMCase antibody from phage display, converted to full length IgG
B4: human AMCase C-terminally truncated, lacking the chitin binding domain (enzyme)
chain: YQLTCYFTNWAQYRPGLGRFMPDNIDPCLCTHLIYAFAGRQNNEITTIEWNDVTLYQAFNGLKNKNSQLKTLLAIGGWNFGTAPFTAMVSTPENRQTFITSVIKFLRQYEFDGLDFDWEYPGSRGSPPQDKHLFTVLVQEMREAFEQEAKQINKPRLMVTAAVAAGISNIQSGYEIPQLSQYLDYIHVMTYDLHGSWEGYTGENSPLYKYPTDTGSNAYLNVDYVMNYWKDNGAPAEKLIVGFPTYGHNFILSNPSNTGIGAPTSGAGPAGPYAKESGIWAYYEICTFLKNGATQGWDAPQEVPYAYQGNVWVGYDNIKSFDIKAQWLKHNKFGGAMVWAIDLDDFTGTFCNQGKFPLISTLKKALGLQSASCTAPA
notes: Biotin labeled in the galectin ELISA; also called hAMCase TR
B5: galectin 2 (other, UniProt P05162 1-132, looked up)
chain: MTGELEVKNMDMKPGSTLKITGSIADGTDGFVINLGQGTDKLNLHFNPRFSESTIVCNSLDGSNWGQEQREDHLCFSPGSEVKFTVTFESDKFKVKLPDGHELTFPNRLGHSHLSYLSVRGGFNMSSFKLKE
B6: human acidic mammalian chitinase (AMCase), full length (enzyme)
chain: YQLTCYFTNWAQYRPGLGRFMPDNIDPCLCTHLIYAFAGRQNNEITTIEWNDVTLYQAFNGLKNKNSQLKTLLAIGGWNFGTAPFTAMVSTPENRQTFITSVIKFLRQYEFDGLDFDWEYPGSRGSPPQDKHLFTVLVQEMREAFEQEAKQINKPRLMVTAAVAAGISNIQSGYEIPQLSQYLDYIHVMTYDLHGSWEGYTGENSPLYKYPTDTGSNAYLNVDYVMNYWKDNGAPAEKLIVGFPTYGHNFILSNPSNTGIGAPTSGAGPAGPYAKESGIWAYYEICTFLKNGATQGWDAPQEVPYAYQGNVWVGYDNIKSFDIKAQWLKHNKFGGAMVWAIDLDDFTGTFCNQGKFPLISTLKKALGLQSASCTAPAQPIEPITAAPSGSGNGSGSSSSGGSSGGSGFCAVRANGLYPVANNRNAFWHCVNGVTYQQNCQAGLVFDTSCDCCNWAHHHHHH
notes: Recombinant from HEK293; non-tagged versions also made; Biotin labeled in the galectin ELISA; also called hAMCase; human AMCase
B7: Z1 (antibody, V domains shown)
VH: EVQLLESGGGLVQPGGSLRLSCAASGFTFSFYRMAWVRQAPGKGLEWVSRISSSGGPTMYADSVKGRFTISRDNSKNTLYLQMNSLRAEDTAVYYCTTEKQYAGVTFESWGQGTLVTVSS
VL: DIQMTQSPATLSLSPGERATLSCRASQSVSSYLAWYQQKPGQAPRLLIYDASNRATGIPARFSGSGSGTDFTLTISSLEPEDFAVYYCQQRSNSPTFGGGTKVEIK
notes: as for B3

The target of assay [1] is B4. Put plainly: ELISA. Background: In an ELISA, binding on a coated surface is turned into a signal by an enzyme label.
Assay [2] has as its target T1, mouse AMCase truncated form lacking the C-terminal chitin binding domain (mouse, UniProt Q91XA9 22-398, limits assumed).
T1 construct: also called mAMCase TR
Put plainly: ELISA.

The target in assay [3] is B6. Kind of assay: ELISA.
Assay [4] has as its target T2, human chitotriosidase (human, UniProt Q13231 22-466).
T2 construct: Recombinant from HEK293; non-tagged versions also made; also called hChT; ChT
Put plainly: ELISA.

Assay [5] concerns the target T3, human YKL-39 (human, UniProt Q15782 27-390).
T3 construct: Recombinant from HEK293; non-tagged versions also made; also called hYKL-39; chondrocyte protein 39
T3 sequence: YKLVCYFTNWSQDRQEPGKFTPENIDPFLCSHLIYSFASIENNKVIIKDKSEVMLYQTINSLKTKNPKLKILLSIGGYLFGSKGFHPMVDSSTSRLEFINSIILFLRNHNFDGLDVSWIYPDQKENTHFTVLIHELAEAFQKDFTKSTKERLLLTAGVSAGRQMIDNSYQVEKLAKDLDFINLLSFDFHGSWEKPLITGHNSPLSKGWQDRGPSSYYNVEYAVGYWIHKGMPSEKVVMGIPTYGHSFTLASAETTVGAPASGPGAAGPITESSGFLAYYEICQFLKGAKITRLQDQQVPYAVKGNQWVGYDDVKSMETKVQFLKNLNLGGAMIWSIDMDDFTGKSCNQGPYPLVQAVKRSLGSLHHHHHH
Put plainly: ELISA.

Assay [6] concerns the target T4, mouse chitotriosidase (mouse, UniProt Q9D7Q1 22-464).
T4 construct: Recombinant from HEK293; non-tagged versions also made; also called mChT; mouse ChT
Kind of assay: ELISA.

Assay [7] has as its target T5, mouse YKL-40/BRP-39 (mouse, UniProt Q61362 30-389).
T5 construct: Recombinant from HEK293; non-tagged versions also made; also called mYKL40/BRP39; mYKL-40
Kind of assay: ELISA.

For assay [8], the target named is T6, human YKL-40 (human, UniProt P36222 22-383).
T6 construct: Recombinant from HEK293; non-tagged versions also made; also called hYKL-40; chitinase 3-like 1
T6 sequence (P36222 other isoform, or with tags, fused parts or gaps limits assumed): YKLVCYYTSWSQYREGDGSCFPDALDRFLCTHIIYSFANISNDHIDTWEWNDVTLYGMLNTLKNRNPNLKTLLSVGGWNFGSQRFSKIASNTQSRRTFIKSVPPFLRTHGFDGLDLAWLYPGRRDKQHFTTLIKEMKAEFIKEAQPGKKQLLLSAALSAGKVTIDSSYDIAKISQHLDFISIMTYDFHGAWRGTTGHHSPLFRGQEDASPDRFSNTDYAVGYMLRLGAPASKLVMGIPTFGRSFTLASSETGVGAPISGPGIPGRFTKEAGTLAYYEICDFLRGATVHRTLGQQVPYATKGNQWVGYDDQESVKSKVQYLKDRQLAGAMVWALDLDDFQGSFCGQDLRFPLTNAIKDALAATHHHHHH
Kind of assay: ELISA.

The target of assay [9] is T7, mouse acidic mammalian chitinase (AMCase), full length (mouse, UniProt Q91XA9 22-473).
T7 construct: Recombinant, secreted from HEK293 cells and purified by its His tag; Biotin labeled in the galectin ELISA; also called mAMCase; mouse AMCase
T7 sequence (Q91XA9 other isoform, or with tags, fused parts or gaps limits assumed): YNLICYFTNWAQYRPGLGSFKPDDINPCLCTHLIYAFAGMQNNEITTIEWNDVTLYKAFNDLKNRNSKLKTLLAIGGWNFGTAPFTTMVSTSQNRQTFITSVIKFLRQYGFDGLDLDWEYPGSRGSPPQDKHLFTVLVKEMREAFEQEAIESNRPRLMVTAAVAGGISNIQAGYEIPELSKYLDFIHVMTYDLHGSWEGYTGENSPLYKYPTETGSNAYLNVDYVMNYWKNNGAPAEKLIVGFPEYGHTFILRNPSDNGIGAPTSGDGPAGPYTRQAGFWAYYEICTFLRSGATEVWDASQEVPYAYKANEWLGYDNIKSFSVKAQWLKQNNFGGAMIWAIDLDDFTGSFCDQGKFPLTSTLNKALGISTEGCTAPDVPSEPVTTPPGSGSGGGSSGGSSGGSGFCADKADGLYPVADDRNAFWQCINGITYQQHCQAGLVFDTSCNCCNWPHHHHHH
Kind of assay: ELISA; +++ = 2.50 to 3.99 OD at 62.5 ng/ml.

The target in assay [10] is T8, mouse AMCase E140A (mouse, UniProt Q91XA9 22-473).
T8 construct: Full length point mutant without chitinase activity; also called mAMCase E140A
T8 sequence (Q91XA9 22-473 E140A limits assumed): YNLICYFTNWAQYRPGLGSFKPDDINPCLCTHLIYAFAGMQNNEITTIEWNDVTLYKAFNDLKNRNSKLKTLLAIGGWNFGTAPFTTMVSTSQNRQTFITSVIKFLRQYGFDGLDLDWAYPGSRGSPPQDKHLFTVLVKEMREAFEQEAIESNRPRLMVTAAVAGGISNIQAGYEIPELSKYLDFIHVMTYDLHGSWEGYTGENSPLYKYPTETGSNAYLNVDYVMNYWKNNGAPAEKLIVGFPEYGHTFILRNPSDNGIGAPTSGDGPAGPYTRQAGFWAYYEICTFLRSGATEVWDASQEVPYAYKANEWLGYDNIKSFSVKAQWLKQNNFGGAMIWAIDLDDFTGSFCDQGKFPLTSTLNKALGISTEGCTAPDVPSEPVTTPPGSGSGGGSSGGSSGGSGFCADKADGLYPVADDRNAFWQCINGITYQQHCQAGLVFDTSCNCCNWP
Kind of assay: ELISA; +++ = 2.50 to 3.99 OD at 62.5 ng/ml.

Assay [11] addresses T9, mouse AMCase D136A (mouse, UniProt Q91XA9 22-473).
T9 construct: Full length point mutant without chitinase activity; also called mAMCase D136A
Put plainly: ELISA; +++ = 2.50 to 3.99 OD at 62.5 ng/ml.

The target in assay [12] is B6. Kind of assay: ELISA: galectin immobilised on the plate, serial dilutions of biotin-labelled AMCase, streptavidin-HRP, TMB, A450. As for the experimental part:
(§1) C/CLP-Galectin Interaction ELISA: Galectin is immobilized on a microtiter plate in DPBS over night at 2-8° C. The plates are then washed with DPBS, 0.1% Tween 20 and blocked for 1 hour at room temperature. Serial dilutions of biotin labeled AMCase are added to each well and incubated for ˜1 hour at room temperature followed by HRP labeled streptavidin. Horseradish peroxydase activity is detected with TMB substrate (KPL, MD) and the reaction is quenched with 1% H2SO4. The absorbance is read at 450 nm.

The target in assay [13] is T10, Ym1 (mouse, UniProt O35744 22-398).
T10 construct: Recombinant from HEK293; non-tagged versions also made; also called chitinase 3-like 3; ECF-L
T10 sequence (O35744 other isoform, or with tags, fused parts or gaps limits assumed): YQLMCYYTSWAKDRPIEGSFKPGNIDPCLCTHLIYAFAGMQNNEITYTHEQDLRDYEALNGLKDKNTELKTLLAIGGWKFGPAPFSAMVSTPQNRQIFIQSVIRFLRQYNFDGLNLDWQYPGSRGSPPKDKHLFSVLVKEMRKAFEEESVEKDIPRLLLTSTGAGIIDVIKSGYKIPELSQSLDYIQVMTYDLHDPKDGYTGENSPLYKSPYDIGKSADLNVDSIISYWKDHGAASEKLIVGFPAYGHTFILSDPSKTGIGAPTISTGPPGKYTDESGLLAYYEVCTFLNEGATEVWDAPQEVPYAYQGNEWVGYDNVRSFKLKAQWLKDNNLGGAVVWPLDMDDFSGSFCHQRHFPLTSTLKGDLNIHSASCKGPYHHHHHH
Kind of assay: ELISA.

In assay [14] the target is T11, Ym2 (mouse, UniProt Q91Z98 22-402).
T11 construct: Recombinant from HEK293; non-tagged versions also made; also called chitinase 3-like 4
T11 sequence (Q91Z98 other isoform, or with tags, fused parts or gaps limits assumed): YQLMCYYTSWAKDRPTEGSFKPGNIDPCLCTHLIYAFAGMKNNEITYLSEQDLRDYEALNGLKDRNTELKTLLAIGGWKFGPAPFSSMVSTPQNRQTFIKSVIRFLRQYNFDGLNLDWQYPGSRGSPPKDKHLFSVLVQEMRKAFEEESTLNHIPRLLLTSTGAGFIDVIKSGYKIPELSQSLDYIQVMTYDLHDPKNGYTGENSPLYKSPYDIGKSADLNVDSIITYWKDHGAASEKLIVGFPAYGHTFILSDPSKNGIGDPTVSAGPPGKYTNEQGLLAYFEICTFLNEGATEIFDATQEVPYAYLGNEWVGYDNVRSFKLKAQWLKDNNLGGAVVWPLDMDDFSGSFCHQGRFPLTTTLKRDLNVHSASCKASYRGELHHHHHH
Put plainly: ELISA.

Assay [15] concerns the target B2. Kind of assay: ELISA: galectin immobilised on the plate, serial dilutions of biotin-labelled AMCase, streptavidin-HRP, TMB, A450. As for the experimental part: as §1
For assay [16], the target named is B6. Kind of assay: ELISA: galectin immobilised on the plate, serial dilutions of biotin-labelled full length human AMCase, A450. As for the experimental part: as §1
Assay [17] concerns the target B4. Put plainly: ELISA: galectin immobilised on the plate, serial dilutions of biotin-labelled C-terminally truncated human AMCase, A450. As for the experimental part: as §1
Assay [18] addresses T12, human galectin-3 (human, UniProt P17931 2-250).
T12 construct: also called gal-3; LGALS3
Put plainly: ELISA: galectin immobilised on the plate, serial dilutions of biotin-labelled AMCase, streptavidin-HRP, TMB, A450. As for the experimental part: as §1

Assay [19] concerns the target T3, human YKL-39. Kind of assay: ELISA; + = 0.20 to 0.99 OD at 62.5 ng/ml.
The target in assay [20] is T8, mouse AMCase E140A. Kind of assay: ELISA; + = 0.20 to 0.99 OD at 62.5 ng/ml.
For assay [21], the target named is T11, Ym2. Put plainly: ELISA; + = 0.20 to 0.99 OD at 62.5 ng/ml.
The target in assay [22] is T7, mouse acidic mammalian chitinase …. Put plainly: ELISA; ++ = 1.00 to 2.49 OD at 62.5 ng/ml.
Assay [23] addresses T1, mouse AMCase truncated form lacking the …. Put plainly: ELISA; ++ = 1.00 to 2.49 OD at 62.5 ng/ml.

T1 sequence (Q91XA9 22-398 limits assumed): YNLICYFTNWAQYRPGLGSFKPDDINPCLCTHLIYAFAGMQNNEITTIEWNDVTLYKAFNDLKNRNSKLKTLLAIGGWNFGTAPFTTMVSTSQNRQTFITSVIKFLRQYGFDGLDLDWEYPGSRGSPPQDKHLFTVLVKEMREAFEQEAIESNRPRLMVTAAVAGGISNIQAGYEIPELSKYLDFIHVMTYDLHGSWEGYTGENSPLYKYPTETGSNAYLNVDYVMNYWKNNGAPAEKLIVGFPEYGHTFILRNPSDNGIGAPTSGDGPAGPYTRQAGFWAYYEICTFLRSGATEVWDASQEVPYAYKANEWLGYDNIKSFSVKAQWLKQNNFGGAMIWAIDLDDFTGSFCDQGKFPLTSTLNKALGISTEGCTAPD
T5 sequence (Q61362 other isoform, or with tags, fused parts or gaps limits assumed): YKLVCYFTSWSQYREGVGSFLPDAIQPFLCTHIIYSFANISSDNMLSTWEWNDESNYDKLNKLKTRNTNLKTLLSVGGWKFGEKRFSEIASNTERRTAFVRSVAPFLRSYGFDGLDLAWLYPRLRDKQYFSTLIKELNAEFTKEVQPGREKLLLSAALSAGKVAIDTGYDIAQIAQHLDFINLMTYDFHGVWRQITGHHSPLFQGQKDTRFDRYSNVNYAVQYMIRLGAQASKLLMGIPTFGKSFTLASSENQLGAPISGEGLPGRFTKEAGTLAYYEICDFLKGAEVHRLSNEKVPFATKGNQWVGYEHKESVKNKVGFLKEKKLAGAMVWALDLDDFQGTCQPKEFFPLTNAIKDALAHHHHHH
T2 sequence (Q13231 other isoform, or with tags, fused parts or gaps limits assumed): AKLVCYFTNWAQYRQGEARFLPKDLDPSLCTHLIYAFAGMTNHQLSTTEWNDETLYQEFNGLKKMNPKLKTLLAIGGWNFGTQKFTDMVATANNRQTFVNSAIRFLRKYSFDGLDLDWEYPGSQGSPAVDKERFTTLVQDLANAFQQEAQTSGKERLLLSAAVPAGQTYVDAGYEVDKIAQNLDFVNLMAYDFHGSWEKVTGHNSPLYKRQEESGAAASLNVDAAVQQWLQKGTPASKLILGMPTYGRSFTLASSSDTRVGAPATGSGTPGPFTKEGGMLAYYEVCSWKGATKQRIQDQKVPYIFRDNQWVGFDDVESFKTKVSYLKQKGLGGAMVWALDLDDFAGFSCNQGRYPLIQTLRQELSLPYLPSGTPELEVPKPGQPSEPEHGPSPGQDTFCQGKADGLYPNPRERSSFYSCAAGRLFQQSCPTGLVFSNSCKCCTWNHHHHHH
T4 sequence (Q9D7Q1 other isoform, or with tags, fused parts or gaps limits assumed): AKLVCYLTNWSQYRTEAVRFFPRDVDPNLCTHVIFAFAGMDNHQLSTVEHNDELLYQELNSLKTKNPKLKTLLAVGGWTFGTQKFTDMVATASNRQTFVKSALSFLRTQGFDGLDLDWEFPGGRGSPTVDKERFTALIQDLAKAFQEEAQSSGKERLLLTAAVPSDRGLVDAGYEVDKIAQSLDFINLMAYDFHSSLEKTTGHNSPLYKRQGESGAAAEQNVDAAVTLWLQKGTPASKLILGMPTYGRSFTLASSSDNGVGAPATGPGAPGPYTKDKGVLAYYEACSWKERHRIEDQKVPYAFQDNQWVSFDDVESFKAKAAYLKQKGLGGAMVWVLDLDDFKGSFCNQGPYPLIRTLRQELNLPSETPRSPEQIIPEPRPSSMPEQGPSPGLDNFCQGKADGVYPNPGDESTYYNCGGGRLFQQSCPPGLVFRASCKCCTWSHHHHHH
T12 sequence (P17931 2-250 limits assumed): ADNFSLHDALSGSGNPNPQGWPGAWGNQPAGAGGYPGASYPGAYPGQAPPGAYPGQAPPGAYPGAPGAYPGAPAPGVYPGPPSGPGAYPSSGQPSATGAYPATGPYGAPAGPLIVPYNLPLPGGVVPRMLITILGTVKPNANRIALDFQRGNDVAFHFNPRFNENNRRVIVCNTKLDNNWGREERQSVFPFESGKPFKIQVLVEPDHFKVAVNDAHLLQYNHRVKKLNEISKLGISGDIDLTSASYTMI
T9 sequence (Q91XA9 22-473 D136A limits assumed): as the sequence (Q91XA9 22-473 E140A limits assumed) above, with D115A, A119E counted along it

As to B1, the binding result in [1], in assay [2], in assay [3], in [4], in assay [5] and in assay [6] was “no binding” throughout. Also, the binding result in [7] and in assay [8] was “no binding” throughout. Further, the “ELISA OD at 62.5 ng/ml antibody” value in [9], in assay [10] and in assay [11] was 2.5 to 3.99 od in each case.

For the molecule B2, in assay [12], the binding result is listed as “binds”.

Regarding B3, the binding result in [1], in assay [2], in [3], in assay [4], in assay [5] and in assay [13] was “no binding” each time. The binding result in assay [6], in assay [14], in [7] and in [8] was “no binding” each time.

On to B4, for which, in [15], the concentration for a half-maximal effect (EC50 (read off the curve)) – broadly, the concentration needed to bring the measured effect to its halfway point – was ~0.1 µg/mL.

Turning to B5, the binding result in [16] and in [17] was “no binding (tested: 10 ug/ml)” each time.

For B6, the “EC50 (read off the curve)” value in [18] was ~0.06 µg/mL.

For the molecule B7, the figures for the binding result in [7], in assay [8] and in assay [21] were “no binding”, “no binding” and “binds”, respectively. For the same molecule, the “ELISA OD at 62.5 ng/ml antibody” value fell in the range of 0.2 to 0.99 od in assay [19], 0.2 to 0.99 od in [20], 1 to 2.49 od in assay [22] and 1 to 2.49 od in [23].
